According to patent publication US20260144882A1 (BIO THERA SOLUTIONS, published 2026):
“And” between values parts separate entries of the source, which are not always exact repeats. Equal entries are not always repeated. Where two headings read alike, the source gives them in different places.

B1: antibody 1G8 (antibody, human IgG1, kappa, V domains shown)
VH: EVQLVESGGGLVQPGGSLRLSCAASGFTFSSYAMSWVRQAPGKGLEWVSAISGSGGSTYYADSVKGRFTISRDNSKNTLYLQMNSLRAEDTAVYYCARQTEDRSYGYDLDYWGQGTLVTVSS
VL: DIQMTQSPSSLSASVGDRVTITCRASQGISSYLAWYQQKPGKAPKLLIYAASSLQSGVPSRFSGSGSGTDFTLTISSLQPEDFATYYCQQHYTTPPTFGQGTKVEIKR
B2: antibody 10F4 (antibody, human IgG1, kappa, V domains shown)
VH: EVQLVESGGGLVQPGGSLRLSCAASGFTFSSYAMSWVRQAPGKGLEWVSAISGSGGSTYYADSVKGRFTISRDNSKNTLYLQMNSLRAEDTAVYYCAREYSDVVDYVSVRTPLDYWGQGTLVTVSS
VL: B1 VL
B3: antibody 1F3 (antibody, human IgG1, kappa, V domains shown)
VH: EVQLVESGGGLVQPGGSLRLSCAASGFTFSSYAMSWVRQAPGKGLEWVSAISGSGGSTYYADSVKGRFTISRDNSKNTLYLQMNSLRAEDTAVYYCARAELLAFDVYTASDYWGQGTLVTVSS
VL: B1 VL

Key:
[1] = biological target: T1, human Nectin-4, full length on cells (human, UniProt Q96NY8 32-510); test: flow cytometry, T-47D cells, antibody bound on ice, 0 h at 37 C
T1 construct: whole, on cells; T-47D cells positive for Nectin-4 expression; also called Nectin-4 on T-47D cells; CHO-Nectin-4
T1 sequence (looked up): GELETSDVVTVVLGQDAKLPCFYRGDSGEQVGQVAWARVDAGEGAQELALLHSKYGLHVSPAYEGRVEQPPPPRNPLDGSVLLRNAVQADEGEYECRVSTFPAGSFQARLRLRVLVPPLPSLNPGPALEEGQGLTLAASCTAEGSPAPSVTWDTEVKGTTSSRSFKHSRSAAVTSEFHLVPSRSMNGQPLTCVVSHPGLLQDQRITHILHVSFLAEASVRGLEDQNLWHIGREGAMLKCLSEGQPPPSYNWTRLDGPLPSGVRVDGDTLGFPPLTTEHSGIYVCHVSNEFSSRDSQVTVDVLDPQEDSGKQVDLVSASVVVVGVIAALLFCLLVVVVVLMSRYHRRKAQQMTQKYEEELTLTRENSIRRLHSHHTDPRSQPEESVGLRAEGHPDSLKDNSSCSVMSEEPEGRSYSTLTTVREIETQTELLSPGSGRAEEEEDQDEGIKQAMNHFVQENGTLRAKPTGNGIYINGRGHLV
Protocol: In this assay, the relative amount of antibodies remaining on the cell surface after co-incubation at 37° C. for a certain period of time was detected by FACS to reflect the endocytosis efficiency. The procedures are briefly described as follows: T-47D cells (human ductal breast cancer cells, derived from the Cell Bank of Chinese Academy of Sciences, Cat.No. TCHu 87); the antibodies of interest were adjusted to 10 µg/mL and co-incubated with the cells on ice for 1 h; the cells were washed 3 times with pre-cooled PBS, and then placed at 37° C. and incubated for 0 h, 2 h and 4 h; 0.2% N₃Na was added to stop the endocytosis reaction; the cells were washed with PBS thrice, followed by the addition of the PE-labeled anti-human Fc secondary antibody (Invitrogen 12-4998-82); the cells were incubated at 4° C. for 30 min; the red fluorescence signal was detected on a flow cytometer.

[2] = biological target: T1, human Nectin-4, full length on cells; test: flow cytometry on T-47D cells
Protocol: In this study, the binding activity of different antibodies to T-47D cells positive for Nectin-4 expression was detected by FACS, and the EC₅₀ for the binding of antibodies to the cells was analyzed by a four-parameter method. The procedures are briefly described as follows: T-47D cells (the Cell Bank of Chinese Academy of Sciences, TCHu 87) were trypsinized; the antibodies were serially diluted and co-incubated with T-47D cells at 4° C. for 0.5-1 h, followed by the addition of the secondary PE-labeled anti-human Fc antibody (Invitrogen, 12-4998-82); the signal intensity of red fluorescence was detected on a flow cytometer, and curves were plotted using Graphpad Prism and the EC₅₀ was calculated.

[3] = biological target: T2, human Nectin-4 extracellular antigen hNectin-4-His (human, UniProt Q96NY8 32-349); test: SPR, antibody on Protein A chip, 1:1 fit
T2 construct: C-terminal 8xHis tag included
T2 sequence: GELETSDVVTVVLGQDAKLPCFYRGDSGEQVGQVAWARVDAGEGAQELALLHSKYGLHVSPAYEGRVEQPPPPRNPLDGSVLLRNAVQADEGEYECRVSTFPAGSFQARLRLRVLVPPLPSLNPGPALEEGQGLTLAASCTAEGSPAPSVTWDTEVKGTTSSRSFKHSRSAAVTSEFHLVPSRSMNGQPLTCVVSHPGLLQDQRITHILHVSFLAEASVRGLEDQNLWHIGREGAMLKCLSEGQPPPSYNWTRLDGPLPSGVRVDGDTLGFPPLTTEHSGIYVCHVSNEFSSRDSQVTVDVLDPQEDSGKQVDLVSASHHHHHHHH
Source text: In this study, the affinity of the antibodies for the human Nectin-4 extracellular antigen was detected by surface plasmon resonance (SPR) technique (BIAcore: GE Healthcare, T200).

[4] = biological target: T2, human Nectin-4 extracellular antigen …; test: ELISA, coated hNectin-4-His
Source text: (§1) The binding activity of the antibodies was detected by ELISA.

[5] = biological target: T2, human Nectin-4 extracellular antigen …; test: ELISA, coated hNectin-4-His; remark: listed apart in the source
Source text: as §1

Binder | MFI (mean fluorescence intensity) 0 h [1] | EC50 [2] | Kd [3] | koff [3] | kon [3] | EC50 [4] | EC50 [5]
B1 | 105000 MFI | 0.109 µg/mL and 0.727 nM | 4.97 nM | 0.003 s⁻¹ | 605000 M⁻¹ s⁻¹ | – | –
B2 | 104000 MFI | 0.156 µg/mL and 1.04 nM | 3.23 nM | 0.00121 s⁻¹ | 375000 M⁻¹ s⁻¹ | 0.041 µg/mL and 0.043 µg/mL | –
B3 | 121000 MFI | 0.116 µg/mL and 0.77 nM | 2.49 nM | 0.00195 s⁻¹ | 785000 M⁻¹ s⁻¹ | – | 0.005 µg/mL
